Source: patent publication US20180155451A1 (published 2018)

T1: FcγRIIa H (human, UniProt P12318 34-217)
T1 construct: extracellular domain; Soluble His-tagged extracellular domain expressed in FreeStyle293 cells; also called FcγRIIa type H; FcgRIIa H; not shown: His tag attached to the C terminus
T1 sequence (looked up): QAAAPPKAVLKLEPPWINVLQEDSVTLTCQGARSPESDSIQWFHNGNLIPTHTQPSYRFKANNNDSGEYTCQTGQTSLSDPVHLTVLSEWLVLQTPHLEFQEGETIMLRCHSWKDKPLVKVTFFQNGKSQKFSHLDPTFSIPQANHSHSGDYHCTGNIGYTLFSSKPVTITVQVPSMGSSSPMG

T2: FcγRIIb (human, UniProt P31994 43-217)
T2 construct: extracellular domain; Soluble His-tagged extracellular domain expressed in FreeStyle293 cells; also called FcgRIIb; 2b; not shown: His tag attached to the C terminus
T2 sequence (looked up): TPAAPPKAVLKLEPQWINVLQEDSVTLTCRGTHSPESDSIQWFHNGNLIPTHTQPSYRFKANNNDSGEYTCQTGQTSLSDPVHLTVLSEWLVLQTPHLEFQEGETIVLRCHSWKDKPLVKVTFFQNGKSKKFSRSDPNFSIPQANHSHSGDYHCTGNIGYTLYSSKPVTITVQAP

T3: FcγRIIb extracellular domain with C-terminal His tag (human, UniProt P31994 43-217)
T3 construct: extracellular domain; also called FcgRIIb; 2b; not shown: His tag at the C terminus
T3 sequence (looked up): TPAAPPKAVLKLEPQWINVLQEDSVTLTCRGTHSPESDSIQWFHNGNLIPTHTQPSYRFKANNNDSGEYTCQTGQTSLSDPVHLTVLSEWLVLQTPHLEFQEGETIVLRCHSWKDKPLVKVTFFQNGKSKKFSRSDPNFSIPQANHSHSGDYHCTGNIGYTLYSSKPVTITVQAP


Key:
FcγRIIa H [1] = biological target: T1, FcγRIIa H; assay: SPR (Biacore); He/Con_2aH divided by He/Con_2b (FcγRIIb) of the same antibody
Protocol: The heterodimerized antibodies He Abs in which one of the H chains was introduced with an alteration were assayed for their binding activities to each activating FcγR and inhibitory FcγR according to the method described in Example 4. […] The activating FcγRs in FIGS. 26, 27, 28, and 29 are FcγRIa, FcγRIIa (R), FcγRIIa (H), and FcγRIIIa, respectively.
(§1) Analysis of interaction between objective antibody and the FcγR was carried out using Biacore T100 (GE Healthcare). HBS-EP+ (GE Healthcare) was used as the running buffer, and the measurement temperature was set to 25° C. Chips produced by immobilizing the antigen peptide by the amine coupling method to a Series S Sencor Chip CM5 (GE Healthcare), or alternatively, chips produced by allowing preliminarily biotinylated antigen peptides to interact with and immobilize onto a Series S Sensor Chip SA (certified) (GE Healthcare) were used. Antibodies of interest were captured onto an antigen peptide-immobilized chip, and allowed to interact to each FcγR diluted with running buffer. To regenerate and repeatedly use the chip, the antibodies captured on the chip were washed off by reacting 10 mM glycine-HCl, pH 1.5.

FcγRIIa H [2] = biological target: T1, FcγRIIa H; assay: SPR (Biacore), captured antibody, FcγR analyte; relative to GpH7-A5/GpH7-B3/GpL16-k0 = 100
Protocol: as §1
(§2) The FcγR-binding activity of each antibody was assessed primarily using as an indicator the FcγR-binding activity and dissociation constant for FcγR.

FcγRIIb = biological target: T2, FcγRIIb; assay: as above
Protocol: as §1, §2

[3] = biological target: T4, FcγRIIIa extracellular domain with C-terminal His tag (human, UniProt P08637 17-208); assay: SPR (Biacore), antibody captured via antigen peptide, FcγR as analyte; binding relative to GpH7-A5/GpH7-B3/GpL16-k0 = 100
T4 construct: extracellular domain; also called FcgRIIIa; 3a; not shown: His tag at the C terminus
T4 sequence (P08637 17-208): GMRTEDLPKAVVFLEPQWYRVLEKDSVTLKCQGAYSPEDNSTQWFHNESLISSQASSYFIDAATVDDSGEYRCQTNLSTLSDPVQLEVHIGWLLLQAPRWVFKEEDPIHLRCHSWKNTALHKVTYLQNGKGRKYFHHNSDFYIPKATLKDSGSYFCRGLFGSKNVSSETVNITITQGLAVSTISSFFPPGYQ

[4] = biological target: T3, FcγRIIb extracellular domain with …; assay: as above

| He_2aH/2b (FcγRIIa H [1]) | He/Con_2aH (FcγRIIa H [2]) | He/Con_2b (FcγRIIb) | He/Con_3a [3] | He/Con_2b [4] | Binder |
| --- | --- | --- | --- | --- | --- |
| 0.75 ratio | 86 relative (control = 100) | 114 relative (control = 100) |  |  | GpH7-A5/GpH7-B3 variant P331_15Y/GpL16-k0 (antibody, human IgG1, kappa, Heterodimerized anti-glypican-3 IgG1; mutation in the GpH7-B3 H chain only; also called He Ab) heavy 1: not shown heavy 2: not shown light: DIVMTQSPLSLPVTPGEPASISCQASESLVHSNRNTYLHWYLQKPGQSPQLLIYKVSNRFSGVPDRFSGSGSGTDFTLKISRVEAEDVGVYYCSQNTHVPPTFGQGTKVEIERTVAAPSVFIFPPSDEQLKSGTASVVCLLNNFYPREAKVQWKVDNALQSGNSQESVTEQDSKDSTYSLSSTLTLSKADYEKHKVYACEVTHQGLSSPVTKSFNRGEC |
| 0.73 ratio | 84.5 relative (control = 100) | 116 relative (control = 100) |  |  | GpH7-A5/GpH7-B3 variant P331_16H/GpL16-k0 (antibody, human IgG1, kappa, Heterodimerized anti-glypican-3 IgG1; mutation in the GpH7-B3 H chain only; also called He Ab) heavy 1: not shown heavy 2: not shown light: DIVMTQSPLSLPVTPGEPASISCQASESLVHSNRNTYLHWYLQKPGQSPQLLIYKVSNRFSGVPDRFSGSGSGTDFTLKISRVEAEDVGVYYCSQNTHVPPTFGQGTKVEIERTVAAPSVFIFPPSDEQLKSGTASVVCLLNNFYPREAKVQWKVDNALQSGNSQESVTEQDSKDSTYSLSSTLTLSKADYEKHKVYACEVTHQGLSSPVTKSFNRGEC |
| 0.59 ratio | 55.5 relative (control = 100) | 94.7 relative (control = 100) |  |  | GpH7-A5/GpH7-B3 variant S324_05P/GpL16-k0 (antibody, human IgG1, kappa, Heterodimerized anti-glypican-3 IgG1; mutation in the GpH7-B3 H chain only; also called He Ab) heavy 1: not shown heavy 2: not shown light: DIVMTQSPLSLPVTPGEPASISCQASESLVHSNRNTYLHWYLQKPGQSPQLLIYKVSNRFSGVPDRFSGSGSGTDFTLKISRVEAEDVGVYYCSQNTHVPPTFGQGTKVEIERTVAAPSVFIFPPSDEQLKSGTASVVCLLNNFYPREAKVQWKVDNALQSGNSQESVTEQDSKDSTYSLSSTLTLSKADYEKHKVYACEVTHQGLSSPVTKSFNRGEC |
|  |  |  | 104 relative (control = 100) | 97.6 relative (control = 100) | GpH7-A5/GpH7-B3 variant I336_18N/GpL16-k0 (antibody, human IgG1, kappa, He Ab: the mutation stands only in the GpH7-B3-derived H chain; also called He Ab I336N) heavy 1: not shown heavy 2: not shown light: DIVMTQSPLSLPVTPGEPASISCQASESLVHSNRNTYLHWYLQKPGQSPQLLIYKVSNRFSGVPDRFSGSGSGTDFTLKISRVEAEDVGVYYCSQNTHVPPTFGQGTKVEIERTVAAPSVFIFPPSDEQLKSGTASVVCLLNNFYPREAKVQWKVDNALQSGNSQESVTEQDSKDSTYSLSSTLTLSKADYEKHKVYACEVTHQGLSSPVTKSFNRGEC |
|  |  |  | 160 relative (control = 100) | 94.8 relative (control = 100) | GpH7-A5/GpH7-B3 variant K334_09D/GpL16-k0 (antibody, human IgG1, kappa, He Ab: the mutation stands only in the GpH7-B3-derived H chain; also called He Ab K334D) heavy 1: not shown heavy 2: not shown light: DIVMTQSPLSLPVTPGEPASISCQASESLVHSNRNTYLHWYLQKPGQSPQLLIYKVSNRFSGVPDRFSGSGSGTDFTLKISRVEAEDVGVYYCSQNTHVPPTFGQGTKVEIERTVAAPSVFIFPPSDEQLKSGTASVVCLLNNFYPREAKVQWKVDNALQSGNSQESVTEQDSKDSTYSLSSTLTLSKADYEKHKVYACEVTHQGLSSPVTKSFNRGEC |
|  |  |  | 106 relative (control = 100) | 92.1 relative (control = 100) | GpH7-A5/GpH7-B3 variant I336_09D/GpL16-k0 (antibody, human IgG1, kappa, He Ab: the mutation stands only in the GpH7-B3-derived H chain; also called He Ab I336D) heavy 1: not shown heavy 2: not shown light: DIVMTQSPLSLPVTPGEPASISCQASESLVHSNRNTYLHWYLQKPGQSPQLLIYKVSNRFSGVPDRFSGSGSGTDFTLKISRVEAEDVGVYYCSQNTHVPPTFGQGTKVEIERTVAAPSVFIFPPSDEQLKSGTASVVCLLNNFYPREAKVQWKVDNALQSGNSQESVTEQDSKDSTYSLSSTLTLSKADYEKHKVYACEVTHQGLSSPVTKSFNRGEC |
| 0.68 ratio | 77.4 relative (control = 100) | 114 relative (control = 100) |  |  | GpH7-A5/GpH7-B3 variant P331_07I/GpL16-k0 (antibody, human IgG1, kappa, Heterodimerized anti-glypican-3 IgG1; mutation in the GpH7-B3 H chain only; also called He Ab) heavy 1: not shown heavy 2: not shown light: DIVMTQSPLSLPVTPGEPASISCQASESLVHSNRNTYLHWYLQKPGQSPQLLIYKVSNRFSGVPDRFSGSGSGTDFTLKISRVEAEDVGVYYCSQNTHVPPTFGQGTKVEIERTVAAPSVFIFPPSDEQLKSGTASVVCLLNNFYPREAKVQWKVDNALQSGNSQESVTEQDSKDSTYSLSSTLTLSKADYEKHKVYACEVTHQGLSSPVTKSFNRGEC |
| 0.75 ratio | 82.8 relative (control = 100) | 111 relative (control = 100) |  |  | GpH7-A5/GpH7-B3 variant P331_20W/GpL16-k0 (antibody, human IgG1, kappa, Heterodimerized anti-glypican-3 IgG1; mutation in the GpH7-B3 H chain only; also called He Ab) heavy 1: not shown heavy 2: not shown light: DIVMTQSPLSLPVTPGEPASISCQASESLVHSNRNTYLHWYLQKPGQSPQLLIYKVSNRFSGVPDRFSGSGSGTDFTLKISRVEAEDVGVYYCSQNTHVPPTFGQGTKVEIERTVAAPSVFIFPPSDEQLKSGTASVVCLLNNFYPREAKVQWKVDNALQSGNSQESVTEQDSKDSTYSLSSTLTLSKADYEKHKVYACEVTHQGLSSPVTKSFNRGEC |
